Two molecules from EP4705353A2 (dated 2026) can be followed below.

Test [1] addresses T1, full length human B7H3 expressed on CHOK1 cells (human, UniProt Q5ZPR3 29-534).
T1 construct: whole, on cells; also called B7H3/CHOK1; B7H3/CHOK1 full length; not shown: C-terminal flag and Myc tags from the pCMV6-Entry vector
T1 sequence (looked up): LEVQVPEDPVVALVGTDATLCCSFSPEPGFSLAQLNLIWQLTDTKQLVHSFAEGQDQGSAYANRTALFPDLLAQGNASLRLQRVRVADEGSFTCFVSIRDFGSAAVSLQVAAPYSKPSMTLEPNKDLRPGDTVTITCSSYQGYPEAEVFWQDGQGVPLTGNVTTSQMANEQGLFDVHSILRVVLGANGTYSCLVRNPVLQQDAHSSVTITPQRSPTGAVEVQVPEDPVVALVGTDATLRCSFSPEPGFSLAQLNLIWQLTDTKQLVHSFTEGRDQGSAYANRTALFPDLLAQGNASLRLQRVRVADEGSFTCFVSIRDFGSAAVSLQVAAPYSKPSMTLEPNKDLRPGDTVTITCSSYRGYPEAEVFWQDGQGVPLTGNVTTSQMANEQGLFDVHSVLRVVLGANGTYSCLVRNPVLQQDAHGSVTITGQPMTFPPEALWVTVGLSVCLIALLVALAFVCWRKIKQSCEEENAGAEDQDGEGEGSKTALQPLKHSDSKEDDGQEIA
Briefly: FACS, VH titrated with or without 20 nM Enoblituzumab as competitor. On the technique in general: A flow cytometer gives signals particle by particle.

For test [2], the target named is T2, human B7H3-Fc recombinant protein (human, UniProt Q5ZPR3 29-466, limits assumed).
T2 construct: Recombinant Fc fusion; also called human B7H3-Fc (full length); B7H3 recombinant protein; not shown: Fc part
T2 sequence (looked up): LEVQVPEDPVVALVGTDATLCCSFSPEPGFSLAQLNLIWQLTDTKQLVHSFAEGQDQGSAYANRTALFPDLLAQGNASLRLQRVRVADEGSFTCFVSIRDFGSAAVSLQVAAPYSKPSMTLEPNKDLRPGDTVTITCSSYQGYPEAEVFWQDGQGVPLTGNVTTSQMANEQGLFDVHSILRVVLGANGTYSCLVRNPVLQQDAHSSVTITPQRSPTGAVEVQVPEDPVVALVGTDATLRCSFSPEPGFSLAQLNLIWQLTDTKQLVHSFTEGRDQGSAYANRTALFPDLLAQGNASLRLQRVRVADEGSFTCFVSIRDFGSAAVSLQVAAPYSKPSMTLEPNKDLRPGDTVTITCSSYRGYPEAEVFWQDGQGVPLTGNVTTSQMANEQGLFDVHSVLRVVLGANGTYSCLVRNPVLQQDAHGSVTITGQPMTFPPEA
Briefly: ELISA, human B7H3-Fc coated at 2 ug/mL, anti-Flag HRP detection; footnote of Table 5: NA: low binding to B7H3 protein. For orientation: In an ELISA, binding on a coated surface is turned into a signal by an enzyme label.

B1: BH-03 anti-B7H3 VH antibody (VHH)
VH: QVQLVESGGGVVQPGRSPRLSCAASGFTFSSYAMHWVRQAPGKGLEWVAVISYDGSNKYYADSVKGRFTISRDNSKNTLYLQMNSLRAEDTAVYYCARDLARLVAGLDYWGQGTLVTVSS
notes: Human heavy chain-only (VH) antibody made in E. coli with a C-terminal flag and 6xHis tag; not shown: C-terminal flag and 6xHis tag
As for B1, the binding result in test [1] and in test [2] was “binds” throughout.

B2: BH-01 anti-B7H3 VH antibody (VHH)
VHH: QVTLKESGPTVVNPTQTLTLTCTFSGFSLTTSPVGVGWLRQPPGQALEWLALIYWDDDKRYSPSLKSRLTITKNTSRNQVVLTMMNMDPVDTATYYCAHRVYYTGNWDGGSFDYWGQGTLVTVSS
notes: Human heavy chain-only (VH) antibody made in E. coli with a C-terminal flag and 6xHis tag; also called BH-1; not shown: C-terminal flag and 6xHis tag
Take B2: the binding result in test [1] is listed as “binds”.
